Test results: paper PMC5216073, “Architecture and mechanism of the late endosomal Rab7-like Ypt7 guanine nucleotide exchange factor complex Mon1–Ccz1” (Nature Communications, 2017)

T1: CtMon1, full length (Chaetomium thermophilum Mon1) (Chaetomium thermophilum, UniProt G0SGS3 1-665)
T1 construct: Mon1 of Chaetomium thermophilum, NCBI XP_006697030; C-terminal domain printed as aa 486-665; GST cleaved with PreScission protease; source: E. coli Rosetta (DE3), co-expressed with CtCcz1, purified (glutathione column, size exclusion chromatography); not shown: GST, N-terminal, cleaved
T1 sequence (looked up): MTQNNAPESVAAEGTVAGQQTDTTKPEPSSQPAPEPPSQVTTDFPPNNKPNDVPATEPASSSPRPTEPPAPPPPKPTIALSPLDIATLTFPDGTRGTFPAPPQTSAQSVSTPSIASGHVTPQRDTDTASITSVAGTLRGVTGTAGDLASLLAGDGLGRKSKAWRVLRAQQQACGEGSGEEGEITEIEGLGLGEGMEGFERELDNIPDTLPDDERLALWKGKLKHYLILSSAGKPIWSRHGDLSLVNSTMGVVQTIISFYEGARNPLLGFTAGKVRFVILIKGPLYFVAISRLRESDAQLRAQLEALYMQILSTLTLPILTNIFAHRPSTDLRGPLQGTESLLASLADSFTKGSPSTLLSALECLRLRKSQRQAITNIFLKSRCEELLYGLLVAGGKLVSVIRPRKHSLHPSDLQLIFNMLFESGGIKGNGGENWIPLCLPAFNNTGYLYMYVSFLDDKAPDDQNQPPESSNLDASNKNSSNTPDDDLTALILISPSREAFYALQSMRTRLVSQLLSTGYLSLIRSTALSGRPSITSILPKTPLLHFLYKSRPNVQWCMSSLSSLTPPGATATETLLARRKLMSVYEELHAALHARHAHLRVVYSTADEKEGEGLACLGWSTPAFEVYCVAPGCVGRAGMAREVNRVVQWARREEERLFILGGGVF


Legend:
[1] = target: CtYpt7 wild type (Chaetomium thermophilum Ypt7) (Chaetomium thermophilum); assay: cell-based or functional assay
[2] = target: the molecule itself; assay: SEC; gel filtration of the full-length CtMC1 complex, co-expressed in E. coli and purified on a glutathione column by GST-CtMon1, tags cleaved
[3] = target: T1, CtMon1, full length (Chaetomium …); assay: as above; conditions: both partners purified

Binder	kcat/KM of MC1-stimulated exchange of MANT-GDP for GTP on Ypt7 (fluorescence GEF assay, 0-2.0 μM CtMC1, 25 °C) [1]	stoichiometry N [2]	stoichiometry N [3]
full-length CtMC1 complex (CtMon1-CtCcz1) (complex, Chaetomium thermophilum, Mon1 of Chaetomium thermophilum, NCBI XP_006697030; codon-optimized synthetic gene; Ccz1 of Chaetomium thermophilum, NCBI XP_006695440; The Mon1-Ccz1 heterodimer forms a dimer of heterodimers (two copies of each protein); the rows of m3 with itself mean the association of two heterodimers; also called CtMC1full; Mon1-Ccz1 complex; source: E. coli Rosetta (DE3), co-expressed, purified (glutathione …)) chain 1: MTQNNAPESVAAEGTVAGQQTDTTKPEPSSQPAPEPPSQVTTDFPPNNKPNDVPATEPASSSPRPTEPPAPPPPKPTIALSPLDIATLTFPDGTRGTFPAPPQTSAQSVSTPSIASGHVTPQRDTDTASITSVAGTLRGVTGTAGDLASLLAGDGLGRKSKAWRVLRAQQQACGEGSGEEGEITEIEGLGLGEGMEGFERELDNIPDTLPDDERLALWKGKLKHYLILSSAGKPIWSRHGDLSLVNSTMGVVQTIISFYEGARNPLLGFTAGKVRFVILIKGPLYFVAISRLRESDAQLRAQLEALYMQILSTLTLPILTNIFAHRPSTDLRGPLQGTESLLASLADSFTKGSPSTLLSALECLRLRKSQRQAITNIFLKSRCEELLYGLLVAGGKLVSVIRPRKHSLHPSDLQLIFNMLFESGGIKGNGGENWIPLCLPAFNNTGYLYMYVSFLDDKAPDDQNQPPESSNLDASNKNSSNTPDDDLTALILISPSREAFYALQSMRTRLVSQLLSTGYLSLIRSTALSGRPSITSILPKTPLLHFLYKSRPNVQWCMSSLSSLTPPGATATETLLARRKLMSVYEELHAALHARHAHLRVVYSTADEKEGEGLACLGWSTPAFEVYCVAPGCVGRAGMAREVNRVVQWARREEERLFILGGGVF chain 2: MTTPVSPSPSGIIPAQLGFLAIYNPALGTTDETLEDQIVYYATASTLSQARRRHRRPRRRDRQRAQSVVKDSRPNAAGATGDSEAVAEDKDPVSKEERHERLRQIGLAQGMVEFAKSFSDGEPVDTIDTEKARVILVEVEEGWWILASIDLTRLPLPQIKTPTSSSAPPPAPNLNPLPPEPAYEYSSREVKPPSLLRADLLRAYDLFLLHHGSSLSSLLASQGRAQLVASLTRFWDHFLATWNVLLHGNPACDVFGGIKLAASGELGIGVGEEERGSGEREVLEGLVERVEGLVDVVVGRYGGPPSEKGPEEEQWLGLGGEVGEEDGAVFLGVGALDRKSLRGVVQWMEEVYVWGENAFGVGGSRAARRRRKRGAKESRVLKTGAGKKIPIGTGTGTEGKRGEAATPDMAGTPGSMDKLFSYLTLGYGTSWSLGLSGTSTPSDSDPGSVSKGMVESSESGKPRRDLSTGHFLLGLSECSEEELTSSQANPKAIFVELKPSYQHPSRKIPPEDPQPLGKVGPELPRDHTARLRPVIYVSQPFIYILLFSEITPSPSTWPTLAESLHAQLSPLQKPLLHSTSYRPERPVVETTSSSGTTTQHQIFDLVYDTETLTLQSTIPNIPDPFPYSATTPTGHSTGQQHHQQSIWTRVEALQTHAQILAILSSGRAIPTDPSSFTHLPWEEGERTCKTARGWWIVWTRVVEHSPPDAVSLHHARDDDDNDDDASCSVLGHLRSVSSSHAAGSTSSSSGSGFGLGAIPGLGGLGGWAADGATRLAQGIGIDTRRYVEGLLTSLGR	21000 M⁻¹ s⁻¹	2	–
CtCcz1, full length (Chaetomium thermophilum Ccz1) (natural protein, UniProt G0SD94 1-796, looked up, Ccz1 of Chaetomium thermophilum, NCBI XP_006695440; C-terminus printed as residues 250-796; His6-SUMO cleaved with SUMO protease; source: E. coli Rosetta (DE3), co-expressed with CtMon1, purified (glutathione column, size exclusion chromatography); not shown: His6, N-terminal, cleaved; SUMO, N-terminal, cleaved) MTTPVSPSPSGIIPAQLGFLAIYNPALGTTDETLEDQIVYYATASTLSQARRRHRRPRRRDRQRAQSVVKDSRPNAAGATGDSEAVAEDKDPVSKEERHERLRQIGLAQGMVEFAKSFSDGEPVDTIDTEKARVILVEVEEGWWILASIDLTRLPLPQIKTPTSSSAPPPAPNLNPLPPEPAYEYSSREVKPPSLLRADLLRAYDLFLLHHGSSLSSLLASQGRAQLVASLTRFWDHFLATWNVLLHGNPACDVFGGIKLAASGELGIGVGEEERGSGEREVLEGLVERVEGLVDVVVGRYGGPPSEKGPEEEQWLGLGGEVGEEDGAVFLGVGALDRKSLRGVVQWMEEVYVWGENAFGVGGSRAARRRRKRGAKESRVLKTGAGKKIPIGTGTGTEGKRGEAATPDMAGTPGSMDKLFSYLTLGYGTSWSLGLSGTSTPSDSDPGSVSKGMVESSESGKPRRDLSTGHFLLGLSECSEEELTSSQANPKAIFVELKPSYQHPSRKIPPEDPQPLGKVGPELPRDHTARLRPVIYVSQPFIYILLFSEITPSPSTWPTLAESLHAQLSPLQKPLLHSTSYRPERPVVETTSSSGTTTQHQIFDLVYDTETLTLQSTIPNIPDPFPYSATTPTGHSTGQQHHQQSIWTRVEALQTHAQILAILSSGRAIPTDPSSFTHLPWEEGERTCKTARGWWIVWTRVVEHSPPDAVSLHHARDDDDNDDDASCSVLGHLRSVSSSHAAGSTSSSSGSGFGLGAIPGLGGLGGWAADGATRLAQGIGIDTRRYVEGLLTSLGR	–	–	1
